B1: Serine/threonine-protein kinase OXI1 (Arabidopsis thaliana (Mouse-ear cress)), Q9LSF1 (parent)
chain: MLEGDEKQSRALDFNRLEVLSLLGRGAKGVVFLVRDDDAKLLALKVILKEAIEKKKKGRESEDDEYKRVSFEQGVLSRFDHPLFPSLHGVLATDKVIGYAIDYCPGQNLNSLRKMQSESMFSDEIIRFYAAELVLALDYLHNQGIVYRDLKPDNVMIQENGHLMLIDFDLSTNLAPRTPQPSPSLSKPSPTMKRKKRLFRFTSFCNSGISPQESISVHSSSTLAVSDSSGEKSNSFVGTEEYVAPEVISGDGHDFAVDWWSLGVVLYEMLYGATPFRGSNRKETFYRILSKPPNLTGETTSLRDLIRRLLEKDPSRRINVEEIKGHDFFRGVDWEKVILVSRPPYIPAPDDGGDKGTDVNTKMDVENIVQEIFAARQEREKQSGDNNKNANMKIKDNTSGEWVKGLNNNHDLESDNNFLVF
partner: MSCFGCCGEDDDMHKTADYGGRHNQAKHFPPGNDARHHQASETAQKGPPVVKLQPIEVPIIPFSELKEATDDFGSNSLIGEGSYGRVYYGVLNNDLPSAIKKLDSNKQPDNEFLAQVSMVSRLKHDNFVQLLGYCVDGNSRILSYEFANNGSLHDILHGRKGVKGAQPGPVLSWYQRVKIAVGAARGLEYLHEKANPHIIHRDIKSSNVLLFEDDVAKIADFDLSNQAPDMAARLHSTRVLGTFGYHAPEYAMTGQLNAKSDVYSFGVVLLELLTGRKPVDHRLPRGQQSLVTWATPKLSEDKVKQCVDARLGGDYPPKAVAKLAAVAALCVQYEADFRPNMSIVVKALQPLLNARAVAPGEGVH

Variants of: B1
Conditions: with y2706, O80719

| effect of a mutation on the interaction | Variant |
| --- | --- |
| disrupting interaction | MLEGDEKQSRALDFNRLEVLSLLGRGAKGVVFLVRDDDAKLLALRVILKEAIEKKKKGRESEDDEYKRVSFEQGVLSRFDHPLFPSLHGVLATDKVIGYAIDYCPGQNLNSLRKMQSESMFSDEIIRFYAAELVLALDYLHNQGIVYRDLKPDNVMIQENGHLMLIDFDLSTNLAPRTPQPSPSLSKPSPTMKRKKRLFRFTSFCNSGISPQESISVHSSSTLAVSDSSGEKSNSFVGTEEYVAPEVISGDGHDFAVDWWSLGVVLYEMLYGATPFRGSNRKETFYRILSKPPNLTGETTSLRDLIRRLLEKDPSRRINVEEIKGHDFFRGVDWEKVILVSRPPYIPAPDDGGDKGTDVNTKMDVENIVQEIFAARQEREKQSGDNNKNANMKIKDNTSGEWVKGLNNNHDLESDNNFLVF [K45R] |

— IntAct's records for PubMed 21276203
